# Assay results: the supplement of paper PMC5998384
# Legend:
# HeLa Kyoto [1] = assay: solubility change mitosis vs G1/S (difference of NP-40 vs SDS log2 ratios) (log2 ratio difference); higher = more soluble in mitosis
# HeLa Kyoto [2] = assay: solubility in G1/S (NP-40 vs SDS abundance) (log2 ratio); higher = more soluble; settings: cell cycle stage: G1/S
# HeLa Kyoto [3] = assay: thermal stability score vs G1/S (z-score of summed log2 fold changes over temperatures); higher = more thermally stable than in G1/S
# HeLa Kyoto [4] = assay: melting temperature (median over replicates), in situ; higher = more thermally stable
# [5] = cell cycle stage: early G1 (4.5 h after nocodazole release)
# 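For melting temperature (median over replicates), in situ in this document: HeLa Kyoto cells synchronized by double thymidine or nocodazole block, proteins quantified by TMT10plex mass spectrometry, three independent biological replicates.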
# 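For solubility change mitosis vs G1/S (difference of NP-40 vs SDS log2 ratios) in this document: synchronized HeLa Kyoto cells (double thymidine block for G1/S, nocodazole release for mitosis), protein amounts in NP-40 versus SDS lysates quantified by mass spectrometry, three biological replicates.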
# 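For solubility in G1/S (NP-40 vs SDS abundance) in this document: HeLa Kyoto cells arrested at G1/S by double thymidine block, proteins quantified by TMT10plex mass spectrometry in mild NP-40 versus SDS extracts, three biological replicates.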
# 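For thermal stability score vs G1/S (z-score of summed log2 fold changes over temperatures) in this document: synchronized HeLa Kyoto cells, proteins quantified by TMT10plex mass spectrometry, three biological replicates, mitosis taken 0.5 h after nocodazole release, G1/S directly after double thymidine block.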
Sequence,solubility change mitosis (log2) (HeLa Kyoto [1]),solubility in G1/S (log2) (HeLa Kyoto [2]),thermal stability score (HeLa Kyoto [3]; [5]),thermal stability score (HeLa Kyoto [3]; cell cycle stage: mitosis),melting temperature (HeLa Kyoto [4]; cell cycle stage: G1/S) [°C],melting temperature (HeLa Kyoto [4]; cell cycle stage: mitosis) [°C]
MGTPRAQHPPPPQLLFLILLSCPWIQGLPLKEEEILPEPGSETPTVASEALAELLHGALLRRGPEMGYLPGSDRDPTLATPPAGQTLAVPSLPRATEPGTGPLTTAVTPNGVRGAGPTAPELLTPPPGTTAPPPPSPASPGPPLGPEGGEEETTTTIITTTTVTTTVTSPVLCNNNISEGEGYVESPDLGSPVSRTLGLLDCTYSIHVYPGYGIEIQVQTLNLSQEEELLVLAGGGSPGLAPRLLANSSMLGEGQVLRSPTNRLLLHFQSPRVPRGGGFRIHYQAYLLSCGFPPRPAHGDVSVTDLHPGGTATFHCDSGYQLQGEETLICLNGTRPSWNGETPSCMASCGGTIHNATLGRIVSPEPGGAVGPNLTCRWVIEAAEGRRLHLHFERVSLDEDNDRLMVRSGGSPLSPVIYDSDMDDVPERGLISDAQSLYVELLSETPANPLLLSLRFEAFEEDRCFAPFLAHGNVTTTDPEYRPGALATFSCLPGYALEPPGPPNAIECVDPTEPHWNDTEPACKAMCGGELSEPAGVVLSPDWPQSYSPGQDCVWGVHVQEEKRILLQVEILNVREGDMLTLFDGDGPSARVLAQLRGPQPRRRLLSSGPDLTLQFQAPPGPPNPGLGQGFVLHFKEVPRNDTCPELPPPEWGWRTASHGDLIRGTVLTYQCEPGYELLGSDILTCQWDLSWSAAPPACQKIMTCADPGEIANGHRTASDAGFPVGSHVQYRCLPGYSLEGAAMLTCYSRDTGTPKWSDRVPKCALKYEPCLNPGVPENGYQTLYKHHYQAGESLRFFCYEGFELIGEVTITCVPGHPSQWTSQPPLCKVTQTTDPSRQLEGGNLALAILLPLGLVIVLGSGVYIYYTKLQGKSLFGFSGSHSYSPITVESDFSNPLYEAGDTREYEVSI [SEZ6L2],0.0248,-0.174,-0.928,-1.52,53.7,54.8
MDEMATTQISKDELDELKEAFAKVDLNSNGFICDYELHELFKEANMPLPGYKVREIIQKLMLDGDRNKDGKISFDEFVYIFQEVKSSDIAKTFRKAINRKEGICALGGTSELSSEGTQHSYSEEEKYAFVNWINKALENDPDCRHVIPMNPNTDDLFKAVGDGIVLCKMINLSVPDTIDERAINKKKLTPFIIQENLNLALNSASAIGCHVVNIGAEDLRAGKPHLVLGLLWQIIKIGLFADIELSRNEALAALLRDGETLEELMKLSPEELLLRWANFHLENSGWQKINNFSADIKDSKAYFHLLNQIAPKGQKEGEPRIDINMSGFNETDDLKRAESMLQQADKLGCRQFVTPADVVSGNPKLNLAFVANLFNKYPALTKPENQDIDWTLLEGETREERTFRNWMNSLGVNPHVNHLYADLQDALVILQLYERIKVPVDWSKVNKPPYPKLGANMKKLENCNYAVELGKHPAKFSLVGIGGQDLNDGNQTLTLALVWQLMRRYTLNVLEDLGDGQKANDDIIVNWVNRTLSEAGKSTSIQSFKDKTISSSLAVVDLIDAIQPGCINYDLVKSGNLTEDDKHNNAKYAVSMARRIGARVYALPEDLVEVKPKMVMTVFACLMGRGMKRV [PLS3],0.00363,0.439,1.07,1.27,54.9,54.5
MAPHDPGSLTTLVPWAAALLLALGVERALALPEICTQCPGSVQNLSKVAFYCKTTRELMLHARCCLNQKGTILGLDLQNCSLEDPGPNFHQAHTTVIIDLQANPLKGDLANTFRGFTQLQTLILPQHVNCPGGINAWNTITSYIDNQICQGQKNLCNNTGDPEMCPENGSCVPDGPGLLQCVCADGFHGYKCMRQGSFSLLMFFGILGATTLSVSILLWATQRRKAKTS [ATRAID],0.252,-0.19,0.782,0.854,53.9,54.8
MKVTLSALDTSESSFTPLVVIELAQDVKEETKEWLKNRIIAKKKDGGAQLLFRPLLNKYEQETLENQNLYLVGASKIRMLLGAEAVGLVKECNDNTMRAFTYRTRQNFKGFDDNNDDFLTMAECQFIIKHELENLRAKDEKMIPGYPQAKLYPGKSLLRRLLTSGIVIQVFPLHDSEALKKLEDTWYTRFALKYQPIDSIRGYFGETIALYFGFLEYFTFALIPMAVIGLPYYLFVWEDYDKYVIFASFNLIWSTVILELWKRGCANMTYRWGTLLMKRKFEEPRPGFHGVLGINSITGKEEPLYPSYKRQLRIYLVSLPFVCLCLYFSLYVMMIYFDMEVWALGLHENSGSEWTSVLLYVPSIIYAIVIEIMNRLYRYAAEFLTSWENHRLESAYQNHLILKVLVFNFLNCFASLFYIAFVLKDMKLLRQSLATLLITSQILNQIMESFLPYWLQRKHGVRVKRKVQALKADIDATLYEQVILEKEMGTYLGTFDDYLELFLQFGYVSLFSCVYPLAAAFAVLNNFTEVNSDALKMCRVFKRPFSEPSANIGVWQLAFETMSVISVVTNCALIGMSPQVNAVFPESKADLILIVVAVEHALLALKFILAFAIPDKPRHIQMKLARLEFESLEALKQQQMKLVTENLKEEPMESGKEKAT [ANO10],-0.214,-0.181,-0.93,-1.12,53.2,51.9
MFRKARRVNVRKRNDSEEEERERDEEQEPPPLLPPPGTGEEAGPGGGDRAPGGESLLGPGPSPPSALTPGLGAEAGGGFPGGAEPGNGLKPRKRPRENKEVPRASLLSFQDEEEENEEVFKVKKSSYSKKIVKLLKKEYKEDLEKSKIKTELNSSAESEQPLDKTGHVKDTNQEDGVIISEHGEDEMDMESEKEEEKPKTGGAFSNALSSLNVLRPGEIPDAAFIHAARKKRQMARELGDFTPHDNEPGKGRLVREDENDASDDEDDDEKRRIVFSVKEKSQRQKIAEEIGIEGSDDDALVTGEQDEELSRWEQEQIRKGINIPQVQASQPAEVNMYYQNTYQTMPYGSSYGIPYSYTAYGSSDAKSQKTDNTVPFKTPSNEMTPVTIDLVKKQLKDRLDSMKELHKTNRQQHEKHLQSRVDSTRAIERLEGSSGGIGERYKFLQEMRGYVQDLLECFSEKVPLINELESAIHQLYKQRASRLVQRRQDDIKDESSEFSSHSNKALMAPNLDSFGRDRALYQEHAKRRIAEREARRTRRRQAREQTGKMADHLEGLSSDDEETSTDITNFNLEKDRISKESGKVFEDVLESFYSIDCIKSQFEAWRSKYYTSYKDAYIGLCLPKLFNPLIRLQLLTWTPLEAKCRDFENMLWFESLLFYGCEEREQEKDDVDVALLPTIVEKVILPKLTVIAENMWDPFSTTQTSRMVGITLKLINGYPSVVNAENKNTQVYLKALLLRMRRTLDDDVFMPLYPKNVLENKNSGPYLFFQRQFWSSVKLLGNFLQWYGIFSNKTLQELSIDGLLNRYILMAFQNSEYGDDSIKKAQNVINCFPKQWFMNLKGERTISQLENFCRYLVHLADTIYRNSIGCSDVEKRNARENIKQIVKLLASVRALDHAMSVASDHNVKEFKSLIEGK [PAXBP1],0.153,-0.54,0.626,1.5,48.6,49
MIEMAAEKEPFLVPAPPPPLKDESGGGGGPTVPPHQEAASGELRGGTERGPGRCAPSAGSPAAAVGRESPGAAATSSSGPQAQQHRGGGPQAQSHGEARLSDPPGRAAPPDVGEERRGGGGTELGPPAPPRPRNGYQPHRPPGGGGGKRRNSCNVGGGGGGFKHPAFKRRRRVNSDCDSVLPSNFLLGGNIFDPLNLNSLLDEEVSRTLNAETPKSSPLPAKGRDPVEILIPKDITDPLSLNTCTDEGHVVLASPLKTGRKRHRHRGQHHQQQQAAGGSESHPVPPTAPLTPLLHGEGASQQPRHRGQNRDAPQPYELNTAINCRDEVVSPLPSALQGPSGSLSAPPAASVISAPPSSSSRHRKRRRTSSKSEAGARGGGQGSKEKGRGSWGGRHHHHHPLPAAGFKKQQRKFQYGNYCKYYGYRNPSCEDGRLRVLKPEWFRGRDVLDLGCNVGHLTLSIACKWGPSRMVGLDIDSRLIHSARQNIRHYLSEELRLPPQTLEGDPGAEGEEGTTTVRKRSCFPASLTASRGPIAAPQVPLDGADTSVFPNNVVFVTGNYVLDRDDLVEAQTPEYDVVLCLSLTKWVHLNWGDEGLKRMFRRIYRHLRPGGILVLEPQPWSSYGKRKTLTETIYKNYYRIQLKPEQFSSYLTSPDVGFSSYELVATPHNTSKGFQRPVYLFHKARSPSH [MEPCE],0.364,-0.115,2.47,4.6,47.8,49.8
